This note sets out measurements from article PMC12430012.

For the assay, the target named is GST-α-synuclein, P37840. The assay is described as follows: GST pull-down (glutathione agarose), western blot, ImageJ quantification. The settings on record: chain shown with the change; E. coli lysates, in vitro; parent: est. 1.0; read off a plot. A general note: A western blot detects proteins with antibodies after separation by electrophoresis.

B1: His6-DNAJB11 WT, Q9UBS4 T188A (protein)
chain: GRDFYKILGVPRSASIKDIKKAYRKLALQLHPDRNPDDPQAQEKFQDLGAAYEVLSDSEKRKQYDTYGEEGLKDGHQSSHGDIFSHFFGDFGFMFGGTPRQQDRNIPRGSDIIVDLEVTLEEVYAGNFVEVVRNKPVARQAPGKRKCNCRQEMRTTQLGPGRFQMAQEVVCDECPNVKLVNEERTLEVEIEPGVRDGMEYPFIGEGEPHVDGEPGDLRFRIKVVKHPIFERRGDDLYTNVTISLVESLVGFEMDITHLDGHKVHISRDKITRPGAKLWKKGEGLPNFDNNNIKGSLIITFDVDFPKEQLTEEAREGIKQLLKQGSVQKVYNGLQGY
As to B1, the ratio to parent is 0.8.

B2: His6-DNAJB11 WT, Q9UBS4 T188E (protein)
chain: GRDFYKILGVPRSASIKDIKKAYRKLALQLHPDRNPDDPQAQEKFQDLGAAYEVLSDSEKRKQYDTYGEEGLKDGHQSSHGDIFSHFFGDFGFMFGGTPRQQDRNIPRGSDIIVDLEVTLEEVYAGNFVEVVRNKPVARQAPGKRKCNCRQEMRTTQLGPGRFQMEQEVVCDECPNVKLVNEERTLEVEIEPGVRDGMEYPFIGEGEPHVDGEPGDLRFRIKVVKHPIFERRGDDLYTNVTISLVESLVGFEMDITHLDGHKVHISRDKITRPGAKLWKKGEGLPNFDNNNIKGSLIITFDVDFPKEQLTEEAREGIKQLLKQGSVQKVYNGLQGY
Regarding B2, the ratio to parent was 4.9.
